# Laboratory results taken from the RNAGym collection of RNA variant scans (doi:10.7554/elife.80360).
# B1: HDV Ribozyme (parent)
# chain: GGCCGGCAUGGUCCCAGCCUCCUCGCUGGCGCCGGCUGGGCAACAUUCCGAGGGGACCGUCCCCUCGGUAAUGGCGAAUGGGACCCA
# Variants of: B1
# Assay: self-cleavage, relative activity (ratio to wild type); higher = more cleavage; co-transcriptional
row,Variant,self-cleavage
1,C66A C85U,0.985
2,C66A G82C,0.34
3,C66A G82U,0.36
4,C63U G73C,0.618
5,C64U G74C,0.128
6,C64U G74U,0.569
7,U60C G67U,1.03
8,C66A G68U,0.616
9,C62A C75U,0.108
10,C61A U72C,0.686
11,C61A U72G,0.554
12,C62U U65C,0.988
13,C62U U65G,0.631
14,C66A G81U,0.227
15,U65G G82A,0.162
16,C61A C64U,0.997
17,C66A A71U,0.692
18,C62U C86U,0.845
19,U65A G68U,0.87
20,U65C G74C,0.204
21,C64A C86G,0.923
22,C64A C86U,0.886
23,C64A C85A,0.623
24,C64G A78C,0.269

row,Variant,self-cleavage
1,C64G A78G,0.527
2,C61U A78U,0.326
3,C61U G74C,0.253
4,C61U G74A,0.463
5,C61U G68A,0.727
6,C64U A87U,0.804
7,U60C A87C,1.05
8,C64U U69A,1.02
9,U60G C66A,0.831
10,C61A G82C,0.228
11,C64U U72A,0.567
12,U65A G81U,0.353
13,U65A G81C,0.502
14,U65C G81C,0.227
15,C61U A77G,1.12
16,U65C C85U,0.997
17,U65C C85G,0.807
18,U60C C63A,1.04
19,U65G C86U,0.966
20,C62G A78C,0
21,C63U C66G,0.88
22,C61G G80U,0.275
23,C61G G80C,0.348
24,C64G U65A,0.799

row,Variant,self-cleavage
1,C63U A77G,0.882
2,C63U A77U,0.698
3,C66G A77C,0.262
4,C61U G82U,0.518
5,C61U A83U,0.456
6,C63G A78U,0.185
7,C61A G74C,0.315
8,U60G G76U,0.969
9,C62G G67U,0.423
10,C64A G67U,0.425
11,U60C U79G,0.554
12,U60C U79A,1.23
13,U60C G81U,0.424
14,U65C A71G,0.935
15,C62U A77C,0.491
16,C61G C62U,0.815
17,C61G C62A,0.958
18,U65G G68U,0.491
19,U65G G68C,0.673
20,C62G G82C,0.204
21,C63G A87U,0.71
22,C64A G76U,0.858
23,C64A G76C,0.95
24,C64A G76A,0.997

row,Variant,self-cleavage
1,U60C U72C,0.539
2,U60G U79A,0.665
3,C61A C62G,0.892
4,U65A A77U,0.72
5,U60G U69C,1.09
6,C64G C66G,0.742
7,C64G C66U,0.955
8,C64G C66A,0.888
9,C63G C64G,0.692
10,C64G G76A,0.862
11,U60C G73U,0.352
12,U60C G73C,0.465
13,C63G G76U,0.978
14,C64G A77C,0.431
15,U65G A83U,0.571
16,C63A A77G,0.734
17,C64A C66U,0.567
18,U65G G80U,0.261
19,C64G U72G,0.745
20,C62U G68U,0.68
21,C62U G68C,0.818
22,C63G G74U,0.529
23,C63A U79G,0.682
24,C64G U79G,0.506

row,Variant,self-cleavage
1,C64G U79A,0.692
2,C61G C84G,0.386
3,C61G C84U,0.544
4,C62A U65A,0.332
5,C62A U65C,0.969
6,U60G A77G,1.09
7,C61G U65C,1.24
8,C63U C85G,0.959
9,C61A G68U,0.623
10,C64U U79A,0.597
11,C63G G80A,0.366
12,C62A G81U,0.266
13,C62G C86G,1.14
14,C63A A70G,0.767
15,C63A A70C,0.883
16,C63A A70U,0.812
17,C62A A77C,0.623
18,C61G A70U,1.04
19,U60C G74C,0.217
20,C62G U79C,0.529
21,C61A A77U,0.389
22,C61A A77G,1.03
23,C64A A83G,0.857
24,C62U U79A,0.95

row,Variant,self-cleavage
1,C63A A83C,0.271
2,C63A C64A,0.665
3,C66A G67A,0.864
4,C63A C86G,1.02
5,C63A C86U,0.784
6,C66A U72C,0.229
7,C64U A78U,0.297
8,U65G C66A,0.9
9,C62G U65A,0.166
10,C62G G76U,1.03
11,C62G G76C,0.937
12,C66A G76A,1.13
13,C64G G73U,0.172
14,C64G G73C,0.324
15,C66A C84G,0.692
16,U60C G82U,0.495
17,C64A G81A,0.386
18,U60C A77G,0.831
19,C64G C75U,0.163
20,C63A G82C,0.122
21,C66A A77C,0.237
22,C64G G81C,0.208
23,U65A G74U,0.428
24,C64A A71G,0.529

row,Variant,self-cleavage
1,C62U A70G,1.09
2,C62A C63A,1.03
3,U65A C75A,0.185
4,U65G A70C,0.601
5,C63G U69G,0.731
6,C63G U69C,0.567
7,C62A A71U,0.892
8,U65A U79G,0.492
9,U65A U79C,0.467
10,U65A C86G,1.12
11,U65G G76U,0.966
12,C63U G81U,0.361
13,C63G A71C,0.782
14,C64U G80A,0.397
15,C64U G80U,0.247
16,U65G G73A,0.363
17,C66A C86G,1.12
18,C63A G68C,0.495
19,C61U G80A,0.242
20,C61U G80U,0.217
21,C61G U69C,0.96
22,C66G C75U,0.157
23,C62A A70G,0.682
24,C62A A70C,0.886

row,Variant,self-cleavage
1,C63G G73A,0.424
2,U65C C86U,0.516
3,U60C C85U,0.989
4,U60C C85A,0.712
5,C66A C75A,0.248
6,U65A G82U,0.217
7,C61A C86A,0.897
8,C61A C86U,1.01
9,C62G U69A,1.04
10,C62G U69G,0.804
11,C66A A87U,0.994
12,C63U A71G,1.03
13,C63U A71U,1.02
14,C63U U69A,0.975
15,C64U C86A,0.66
16,C62U A87G,1.05
17,C62U A87C,1.11
18,U60C A83C,0.443
19,U60C C64A,1.13
20,C63G G68C,0.232
21,C64A G80C,0.125
22,C64A G80U,0.294
23,C63U A83G,0.653
24,C63U A83C,0.502

row,Variant,self-cleavage
1,C61U A70U,1.02
2,C62A A87G,0.867
3,C62A A87C,0.946
4,C61A A78G,0.678
5,C62A C85G,0.88
6,C62A G82U,0.295
7,C62A G82C,0.271
8,U65C G80A,0.356
9,U65G G81A,0.282
10,C64A A87G,0.902
11,C61G G68C,0.665
12,U60C G80C,0.125
13,C63G C75U,0.154
14,C62U U69C,1.07
15,C61G G74A,0.429
16,C61G G74C,0.225
17,U65G A87U,1.12
18,U60G C61G,0.872
19,U65C A78G,0.731
20,U65G U72G,0.748
21,C61U A87U,0.959
22,U60G G67U,1.07
23,C64A U79G,0.684
24,C64A U79A,0.796

row,Variant,self-cleavage
1,C61A U79C,0.506
2,C61G G67C,0.945
3,C61G G67U,0.649
4,C63G,0.764
5,C63U,1
6,C63A,0.973
7,U65G A78U,0.569
8,U65C G82C,0.252
9,U65A U72C,0.511
10,C63U G74U,0.583
11,U65C U72A,0.665
12,U65C U72C,0.609
13,C61A C75A,0.136
14,C64U G67C,0.906
15,C61U C85U,0.917
16,C61G C75G,0.113
17,C61G C75A,0.166
18,C63G C86U,0.816
19,C63G C86A,0.95
20,C61G G73A,0.475
21,C64U C75G,0.106
22,C61G C66U,1.08
23,C64A A77G,0.703
24,C64A A77U,0.449

row,Variant,self-cleavage
1,C61G A71C,0.787
2,C61G G76U,1.16
3,U65C G68U,0.831
4,C62G G80C,0.0791
5,C62U G73A,0.808
6,C62U G73U,0.472
7,C63A G80U,0.2
8,U65A C84U,0.799
9,C61G A77U,0.394
10,U65A G76C,1.11
11,C61A C85U,1.05
12,C61A C85A,1.09
13,C62G A83G,0.404
14,C62G A83U,0.17
15,C62A G76U,1.08
16,C64U A83G,1.02
17,U65C C66U,1.04
18,U65G G74A,0.3
19,C61G A78G,0.831
20,C64A G68A,0.537
21,C62U G67U,1.02
22,C62U G67C,0.923
23,C62G A77U,0.388
24,C61U C64G,0.308

row,Variant,self-cleavage
1,C61G A83G,0.567
2,C64U C85U,1.08
3,C64U C85G,0.851
4,C64G A87U,0.786
5,C64G A87G,0.853
6,C64G A87C,0.778
7,C61U C66G,0.529
8,U60G G73C,0.323
9,U60G G73U,0.298
10,C63A G81A,0.446
11,C61U G67C,0.78
12,C61U G67A,0.562
13,C62U G76C,0.941
14,C61A A70G,0.812
15,C61A A83C,0.342
16,U60G U65A,0.95
17,U60G U65C,1.17
18,C63A A71C,0.525
19,C66A A78C,0.142
20,C61U U79G,1.15
21,U65A A78G,0.831
22,U65G A77G,0.831
23,C63U A70C,1.07
24,U60G G81U,0.123

row,Variant,self-cleavage
1,C64G C84A,0.718
2,C64G C84U,0.831
3,C62U C66U,0.953
4,U65C A83C,0.867
5,C62A G68U,0.939
6,C62A G68A,0.842
7,C64G A71C,0.68
8,C61A G73C,0.415
9,C64G A70U,0.978
10,C61A U69C,0.906
11,C63U U65C,1.14
12,C64G G74A,0.17
13,C62G G81A,0.299
14,C62U G82C,0.242
15,C62U G82A,0.338
16,C63A C75G,0.201
17,C64A C84U,0.694
18,C62A C66U,0.597
19,C62G C66A,0.323
20,C62U,0.994
21,C62G,0.695
22,C62A,0.979
23,C61G U79G,0.437
24,C64U A71G,1.07

row,Variant,self-cleavage
1,C64U A71U,1.12
2,U60G U72A,0.458
3,U65G C85G,0.692
4,U65G C85U,0.831
5,C62G C64U,0.485
6,C62G C64A,0.608
7,C62G C64G,0.427
8,C66A U79A,0.696
9,C66A G80C,0.0845
10,C61U A71C,0.746
11,C64U A77U,0.674
12,C64U A77C,0.318
13,C63G U79G,0.692
14,C63U C84G,0.63
15,C63U C84U,0.726
16,U65A A70C,0.643
17,C63A C84U,0.717
18,U60C C66U,0.997
19,C64G C85U,1.17
20,C64G C85A,0.956
21,U65C U69C,1.02
22,C62A G73U,0.212
